Test results: patent US20140154252A1 (EMERGENT PRODUCT DEVELOPMENT SEATTLE, published 2014)
Numbering of substitutions follows the chain as printed. In names and notes the source's numbering stands. Values belong to the binder of their own block, whether it stands above or below them.

Tests used:
[1] = target: T1, CD28 presented on CHO cells (UniProt P10747 19-220, limits assumed); assay: flow cytometry, lower graph taken as panel B of the legend = CD28 CHO cells; FITC goat anti-human IgG [lower graph]
T1 construct: whole, on cells; also called CD28 CHO; CD28-expressing CHO cells
Procedure: (§1) Seeded plates containing the proteins were incubated on ice for one hour. Subsequently, the wells were washed once with 200 μl 1% FBS in PBS. Goat anti-human antibody labeled with FITC (Fc Sp) at 1:100 was then added to each well, and the plates were again incubated on ice for one hour. The plates were then washed once with 200 μl 1% FBS in PBS and the cells were re-suspended in 200 μl 1% FBS and analyzed by FACS.
(§2) To assess the binding properties of the anti-CD28 peptide 2E12 VHVL, CD28-expressing CHO cells were plated by seeding in individual wells of a culture plate. […] The 2E12IgGvHvL SMIP purified protein was added to individual seeded wells, again using a two-fold dilution scheme, i.e., from 20 μg/ml down to […]. One well received no protein to provide a background control. The plates were then incubated on ice for one hour, washed once with 200 μl 1% FBS in PBS, and goat anti-human antibody labeled with FITC (Fc Sp) at 1:100 was added to each well. The plates were again incubated on ice for one hour and subsequently washed once with 200 μl 1% FBS in PBS. Following re-suspension of the cells in 200 μl 1% FBS, FACS analysis was performed.

CD28mIgG = target: T2, CD28mIgG (UniProt P10747 19-152); assay: sandwich flow cytometry: fusion protein titrated on WIL-2S cells (held by CD20), then CD28mIgG, then FITC anti-mouse
T2 construct: Bought reagent; the construct is not described; also called CD28Ig (Ancell); CD28 fused to mouse antibody; not shown: mouse Ig part of the bought fusion; not described

CD20 [2] = target: T3, CD20 (human, UniProt P11836 1-297); assay: flow cytometry, upper graph taken as panel A of the legend = WIL-2S cells (CD20); FITC goat anti-human IgG [upper graph]
T3 construct: whole, on cells; 2H7 is called murine anti-human CD20; also called CD20 presented on WIL-2S cells; CD20 on Ramos, BJAB, SU-DHL-6 and DoHH2 B cells
T3 sequence (looked up): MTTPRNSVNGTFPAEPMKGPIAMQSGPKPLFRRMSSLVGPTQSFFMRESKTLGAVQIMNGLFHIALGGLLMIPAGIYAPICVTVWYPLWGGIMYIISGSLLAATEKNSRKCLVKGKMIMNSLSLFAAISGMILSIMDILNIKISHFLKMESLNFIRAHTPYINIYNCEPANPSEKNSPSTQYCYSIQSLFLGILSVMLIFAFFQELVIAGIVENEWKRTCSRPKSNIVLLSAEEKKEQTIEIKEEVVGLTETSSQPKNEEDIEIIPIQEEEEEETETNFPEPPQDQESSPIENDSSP
Procedure: as §1, §2

CD20 [3] = target: T3, CD20; assay: flow cytometry on WIL2S cells (CD20), FITC goat anti-human IgG; no unit printed on the axis (legend: ug/ml)

B1: 2H7-sss-hIgG P238S/P331S-H6-2e12 VHVL (bispecific antibody)
chain: QIVLSQSPAILSASPGEKVTMTCRASSSVSYMHWYQQKPGSSPKPWIYAPSNLASGVPARFSGSGSGTSYSLTISRVEAEDAATYYCQQWSFNPPTFGAGTKLELKDGGGSGGGGSGGGGSSQAYLQQSGAESVRPGASVKMSCKASGYTFTSYNMHWVKQTPRQGLEWIGAIYPGNGDTSYNQKFKGKATLTVDKSSSTAYMQLSSLTSEDSAVYFCARVVYYSNSYWYFDVWGTGTTVTVSEPKSSDKTHTSPPSPAPELLGGSSVFLFPPKPKDTLMISRTPEVTCVVVDVSHEDPEVKFNWYVDGVEVHNAKTKPREEQYNSTYRVVSVLTVLHQDWLNGKEYKCKVSNKALPASIEKTISKAKGQPREPQVYTLPPSRDELTKNQVSLTCLVKGFYPSDIAVEWESNGQPENNYKTTPPVLDSDGSFFLYSKLTVDKSRWQQGNVFSCSVMHEALHNHYTQKSLSLSPGKGGGGSGGGGSGGGGSGNSQVQLKESGPGLVAPSQSLSITCTVSGFSLTGYGVNWVRQPPGKGLEWLGMIWGDGSTDYNSALKSRLSITKDNSKSQVFLKMNSLQTDDTARYYCARDGYSNFHYYVMDYWGQGTSVTVSSGGGGSGGGGSGGGGSGGGGSDIVLTQSPASLAVSLGQRATISCRASESVEYYVTSLMQWYQQKPGQPPKLLISAASNVESGVPARFSGSGSGTDFSLNIHPVEEDDIAMYFCQQSRKVPWTFGGGTKLEIKR
notes: Assembled from modules as m11; The preparation held a share of cleaved, SMIP-sized molecules; also called 2H7-sss-hIgG-H6-2e12
EC50 (read off the curve) [1]: ~0.8 µg/mL | EC50 (read off the curve) (CD28mIgG): ~0.3 µg/mL | EC50 (read off the curve) (CD20 [2]): ~1 µg/mL

B2: 2H7-sss-hIgG-STD1-G19-4 HL (bispecific antibody)
chain (part 1 of 2): QIVLSQSPAILSASPGEKVTMTCRASSSVSYMHWYQQKPGSSPKPWIYAPSNLASGVPARFSGSGSGTSYSLTISRVEAEDAATYYCQQWSFNPPTFGAGTKLELKDGGGSGGGGSGGGGSSQAYLQQSGAESVRPGASVKMSCKASGYTFTSYNMHWVKQTPRQGLEWIGAIYPGNGDTSYNQKFKGKATLTVDKSSSTAYMQLSSLTSEDSAVYFCARVVYYSNSYWYFDVWGTGTTVTVSEPKSSDKTHTSPPSP
chain (part 2 of 2): NYGGGGSGGGGSGGGGSGNSEVQLQQSGPELVKPGASMKISCKASGYSFTGYIVNWLKQSHGKNLEWIGLINPYKGLTTYNQKFKGKATLTVDKSSSTAYMELLSLTSEDSAVYYCARSGYYGDSDWYFDVWGAGTTVTVSSGGGGSGGGGSGGGGSASDIQMTQTTSSLSASLGDRVTISCRASQDIRNYLNWYQQKPDGTVKLLIYYTSRLHSGVPSRFSGSGSGTDYSLTIANLQPEDIATYFCQQGNTLPWTFGGGTKLVTKRS
notes: Assembled from modules; also called 2H7sssIgG1-STD1-G19-4 HL; CD20-hIgG-CD3 multispecific molecule (SSS hinge, HL); not shown: human IgG1 CH2-CH3
binding result (CD20 [3]): binds

Results, then the binder that gave them:

binding result (CD20 [3]): binds
B3: 2H7-sss-hIgG-STD1-G19-4 LH (bispecific antibody)
chain (part 1 of 2): B2 chain (part 1 of 2)
chain (part 2 of 2): NYGGGGSGGGGSGGGGSGNSDIQMTQTTSSLSASLGDRVTISCRASQDIRNYLNWYQQKPDGTVKLLIYYTSRLHSGVPSRFSGSGSGTDYSLTIANLQPEDIATYFCQQGNTLPWTFGGGTKLVTKRGGGGSGGGGSGGGGSASEVQLQQSGPELVKPGASMKISCKASGYSFTGYIVNWLKQSHGKNLEWIGLINPYKGLTTYNQKFKGKATLTVDKSSSTAYMELLSLTSEDSAVYYCARSGYYGDSDWYFDVWGAGTTVTVSS
notes: Assembled from modules; also called 2H7sssIgG1-STD1-G19-4 LH; CD20-hIgG-CD3 multispecific molecule (LH); not shown: human IgG1 CH2-CH3

binding result (CD20 [3]): binds
B4: 2H7-csc-hIgG-STD1-G19-4 HL (bispecific antibody)
chain (part 1 of 2): B2 chain (part 1 of 2) with S248C, S257C
chain (part 2 of 2): B2 chain (part 2 of 2)
notes: Assembled from modules; also called CD20-hIgG-CD3 multispecific molecule (CSC hinge, HL); not shown: human IgG1 CH2-CH3
